The data set is described as follows: plasma membrane level, fixed-cell imaging. The conditions noted are these: glycan lost; control: wild type.

One protein from paper PMC7322011 can be followed below.

B1: peripheral myelin protein 22 (PMP22): N41Q (protein)
parent chain: MLLLLLSIIVLHVAVLVLLFVSTIVSQWIVGNGHATDLWQNCSTSSSGNVHHCFSSSPNEWLQSVQATMILSIIFSILSLFLFFCQLFTLTKGGRFYITGIFQILAGLCVMSAAAIYTVRHPEWHLNSDYSYGFAYILAWVAFPLALLSGVIYVILRKRE
For B1, the localisation_or_trafficking entry was “increases”.
